Measured values published in the supplement of paper PMC10126150.
± gives the standard deviation of the averaged measurements.

Test system: ATP
Test: switch fluorescence ratio, 500 uM ATP over buffer (Cy3 cluster intensity, sum of 5 cycles each) (fold (ratio)); higher = stronger signal-on switching upon ATP binding; sequences stand for … in TCGTCGGCAGCGTCAGATGTGTATAAGAGACAGTTTTTTTTTTTTTTTTTTTTTTTTT…TC
Conditions: aptamer strand: ATP DNA aptamer (quencher-CACCTGGGGGAGTATTGCGGAGGAAGG + anchor), 100 nM annealed; ATP concentration: 500 uM
In short: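 Cy3-labelled switching-strand clusters on a modified Illumina MiSeq flow-cell were annealed to 100 nM quencher-labelled ATP aptamer, imaged in selection buffer, then imaged after 15 min with 500 uM ATP at 22 °C. Five buffer/ATP cycles ran, with NaOH stripping and re-annealing between them. The fluorescence ratio is summed target-cycle over summed buffer-cycle Cy3 intensity per cluster, averaged per switch-domain sequence. Clusters outside 100-1000 RFU were excluded.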
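Note: ATP exposure 15 min at 22 °C before imaging.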

Sequence	switch fluorescence ratio
CCGCGGGTCG	1.046 ± 0.0013
CCGCGTACGG	2.03 ± 0.22
CCGCGTTATG	1.67 ± 0.078
CCGCTAAGGT	1.39 ± 0.092
CCGCTACTGT	2.69 ± 0.39
CCGCTCAGTT	1.355 ± 0.0058
CCGCTCGATG	1.37 ± 0.023
CCGCTTGGTT	1.23 ± 0.028
CCGCTTTGTT	1.24 ± 0.072
CCGGAAAAAG	1.02 ± 0.074
CCGGAAAGAG	1.06 ± 0.02
CCGGACAGCG	0.99 ± 0.038
CCGGACAGTG	1.09 ± 0.099
CCGGACGTTC	1.53 ± 0.042
CCGGAGGTCG	0.958 ± 0.012
CCGGATCGGC	1.04 ± 0.029
CCGGATTATA	1.046 ± 0.0059
CCGGATTTTG	0.981 ± 0.012
CCGGCCGGGG	1.01 ± 0.059
CCGGCGGTTT	1.04 ± 0.029
CCGGCTTGCT	1.03 ± 0.036
CCGGCTTTAG	0.99 ± 0.015

Sequence	switch fluorescence ratio
CCGGGAGAAA	1.28 ± 0.02
CCGGGAGGTA	0.991 ± 0.021
CCGGGCTGGG	1.03 ± 0.018
CCGGGGAACG	1.08 ± 0.048
CCGGGGAATG	1.04 ± 0.052
CCGGGGAGGA	1.06 ± 0.026
CCGGGGAGGG	1.08 ± 0.053
CCGGGGATTG	1.01 ± 0.027
CCGGGGCTGG	1.04 ± 0.037
CCGGGGCTTT	1.17 ± 0.021
CCGGGGGAAC	1.14 ± 0.09
CCGGGGGACA	1.1 ± 0.17
CCGGGGGATC	1.1 ± 0.017
CCGGGGGCTA	2.69 ± 1.9
CCGGGGGGAG	1.02 ± 0.045
CCGGGGGGCC	1.08 ± 0.038
CCGGGGTCGT	1.02 ± 0.012
CCGGGGTCTG	0.995 ± 0.035
CCGGGTCTTT	1.002 ± 0.0064
CCGGGTTTTT	1.12 ± 0.13
CCGGTCAGTG	1.066 ± 0.0088
CCGGTTGCTG	1.12 ± 0.066

Sequence	switch fluorescence ratio
CCGTAAAACT	2.46 ± 1.2
CCGTATATAT	2.55 ± 0.096
CCGTCAACTA	1.96 ± 0.22
CCGTCATCTT	1.024 ± 0.0072
CCGTCGGGGT	1.09 ± 0.025
CCGTGGCGTG	1.01 ± 0.033
CCGTGGCTGT	1.31 ± 0.068
CCGTGGGATG	0.986 ± 0.031
CCGTGGGGGT	1.054 ± 0.0029
CCGTGTACGG	0.999 ± 0.054
CCGTGTAGGG	1.01 ± 0.034
CCGTTACCTG	0.974 ± 0.015
CCGTTAGCTT	2.2 ± 0.079
CCGTTGAGCG	1.03 ± 0.03
CCGTTGGGGT	1.11 ± 0.13
CCGTTGTAAG	1.0184 ± 0.001
CCGTTTGGTC	1.02 ± 0.019
CCGTTTGTGC	1.21 ± 0.063
CCGTTTTGCG	1.02 ± 0.027
CCTAAATTAT	1.02 ± 0.035
CCTAAATTTT	1.01 ± 0.024
CCTAACAGTT	1.02 ± 0.0039

Sequence	switch fluorescence ratio
CCTAACTAAA	0.995 ± 0.028
CCTAACTTAG	1.021 ± 0.0029
CCTAAGTGGG	1.02 ± 0.034
CCTAATAGGG	0.9929 ± 0.0033
CCTAATTTGG	0.974 ± 0.031
CCTACACTGG	1.13 ± 0.048
CCTACGTTT	1.06 ± 0.063
CCTAGAGGGT	1.07 ± 0.024
CCTAGCATGG	2.05 ± 0.21
CCTAGCGGTG	1.12 ± 0.03
CCTAGCTG	1.02 ± 0.056
CCTAGGAGCC	1.05 ± 0.026
CCTAGGATTC	1.01 ± 0.043
CCTAGGGGTT	1.09 ± 0.064
CCTAGTACCG	0.992 ± 0.069
CCTAGTGGGG	1.04 ± 0.06
CCTATGATTG	0.981 ± 0.023
CCTATGGCGG	1.07 ± 0.017
CCTATTCTGA	0.97 ± 0.068
